From patent US20210230295A1 (HANGZHOU SUMGEN BIOTECH, published 2021)
One block for each binder: values may come before it.

Key:
[1] = biological target: T1, AXL (Beijing Yiqiao Shenzhou Bio Technology Co., Ltd., 6xHis label, with a molecular weight of 65 Kda) (UniProt P30530 33-449); assay: SPR (BIACORE), C6G12 captured by anti-human IgG-Fc antibody, AXL-His as mobile phase
T1 construct: Bought protein used as the mobile phase in BIACORE; not shown: 6xHis label
T1 sequence (looked up): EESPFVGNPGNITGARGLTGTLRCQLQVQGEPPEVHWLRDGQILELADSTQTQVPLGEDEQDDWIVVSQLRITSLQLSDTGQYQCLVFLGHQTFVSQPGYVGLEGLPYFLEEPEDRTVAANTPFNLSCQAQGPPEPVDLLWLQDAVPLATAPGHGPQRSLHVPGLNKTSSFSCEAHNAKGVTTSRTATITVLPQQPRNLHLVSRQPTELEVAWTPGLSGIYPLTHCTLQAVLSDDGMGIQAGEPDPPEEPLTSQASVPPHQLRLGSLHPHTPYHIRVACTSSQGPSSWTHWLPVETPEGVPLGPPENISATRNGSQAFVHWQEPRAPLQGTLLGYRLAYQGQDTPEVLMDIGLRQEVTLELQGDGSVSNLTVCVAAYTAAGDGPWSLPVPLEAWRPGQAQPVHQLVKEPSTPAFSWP
Procedure: The antibody affinity was analyzed by BIACORE biomacromolecule interaction analyzer (GE Company). The anti-human IgG-Fc antibody (purchased from Abcam) was coupled to the chip, and used to capture the C6G12 antibody with an antibody concentration set as 0.5 μg/mL and an injection time of 60 seconds. AXL (Beijing Yiqiao Shenzhou Bio Technology Co., Ltd., 6×His label, with a molecular weight of 65 Kda) was taken as the mobile phase, with 6 concentration gradients (1, 0.4, 0.16, 0.064, 0.0256, 0.01024 μg/mL), a binding time of 180 seconds, and a dissociation time of 1200 seconds.

[2] = biological target: T2, AXL on the surface of human tumor cells (human, UniProt P30530 26-894); assay: cell-based or functional assay
T2 sequence: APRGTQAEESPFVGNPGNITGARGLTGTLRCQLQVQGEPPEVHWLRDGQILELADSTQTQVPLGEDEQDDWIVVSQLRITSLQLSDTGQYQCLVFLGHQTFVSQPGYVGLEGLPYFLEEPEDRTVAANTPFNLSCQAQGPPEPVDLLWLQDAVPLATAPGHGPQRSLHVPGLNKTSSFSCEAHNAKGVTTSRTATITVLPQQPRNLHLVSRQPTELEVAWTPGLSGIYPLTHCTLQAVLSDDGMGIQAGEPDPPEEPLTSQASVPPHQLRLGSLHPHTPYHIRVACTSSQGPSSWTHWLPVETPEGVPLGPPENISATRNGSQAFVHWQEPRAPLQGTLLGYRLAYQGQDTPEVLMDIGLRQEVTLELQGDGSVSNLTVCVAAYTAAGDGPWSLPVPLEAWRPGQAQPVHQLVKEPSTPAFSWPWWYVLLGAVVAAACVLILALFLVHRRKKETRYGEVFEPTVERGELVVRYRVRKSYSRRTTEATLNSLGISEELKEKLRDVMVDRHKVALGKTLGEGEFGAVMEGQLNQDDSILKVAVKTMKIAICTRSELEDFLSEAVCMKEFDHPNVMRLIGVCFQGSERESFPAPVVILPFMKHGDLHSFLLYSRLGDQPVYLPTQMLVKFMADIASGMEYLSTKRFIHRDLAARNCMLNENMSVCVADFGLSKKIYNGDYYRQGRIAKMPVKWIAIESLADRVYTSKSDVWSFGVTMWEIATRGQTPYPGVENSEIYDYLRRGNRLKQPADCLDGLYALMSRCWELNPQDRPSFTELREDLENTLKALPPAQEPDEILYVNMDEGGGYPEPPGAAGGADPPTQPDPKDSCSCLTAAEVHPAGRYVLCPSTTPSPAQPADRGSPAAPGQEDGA

[3] = biological target: T3, AXL-Fc (fusion protein of human AXL protein extracellular domain-human IgG1 Fc) (human); assay: ELISA, AXL-Fc coated at 1 ug/ml, anti-human Fab-HRP detection
T3 construct: Expressed in CHO-K1 cells
Procedure: The AXL-Fc prepared in Example 1 was coated on the ELISA plate at 1 μg/ml at 4° C. overnight. After washing with PBST, 10% fetal bovine serum was added and blocked at 37° C. for 1 hour. Different concentrations of the C6G12 antibody prepared in Example 3 were added and reacted at 37° C. for 1 hour. After washing with PBST, horseradish peroxidase-labeled goat anti-human Fab secondary antibody (Goat Anti-human IgG(Fab′)2 (HRP), Abcam) was added and reacted at 37° C. for 30 minutes. The plate was repeatedly washed with PBST for 5 times, and dried to remove residual droplets as possible by absorbent paper. 100 μl of TMB (eBioscience) was added to each well, and stood at room temperature (20±5° C.) in the dark for 1.5 minutes. 100 μl of 2N H₂SO₄ stop solution was added to each well to stop the substrate reaction. The OD value was read with a microplate reader at 450 nm. The binding ability of the C6G12 antibody to AXL-Fc was analyzed.

BCMA (ACRO Biosystems) = biological target: T4, BCMA (ACRO Biosystems) (UniProt Q02223 1-54); assay: ELISA, protein coated at 1 ug/ml, OD 450 nm
T4 sequence (looked up): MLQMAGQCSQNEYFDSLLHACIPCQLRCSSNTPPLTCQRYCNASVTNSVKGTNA
Procedure: (§1) Milk (Beijing Bomed Biotechnology Co., Ltd.), BSA (BOVOGEN), CD19 (Beijing Yiqiao Shenzhou Biotechnology Co., Ltd.), TROP2 (Beijing Yiqiao Shenzhou Biotechnology Co., Ltd.), BCMA (ACRO Biosystems), CD47 (Beijing Magpel Biotechnology Co., Ltd.), CD38 (Beijing Yiqiao Shenzhou Biotechnology Co., Ltd.), Gas6 (R&D) and each protein and AXL (ACRO Biosystems) were coated with ELISA plates at 1 μg/ml at 4° C. overnight, respectively. After washing with PBST, 10% fetal bovine serum was added and blocked at 37° C. for 1 hour. The C6G12 antibody prepared in Example 3 was added and reacted at 37° C. for 1 hour. After washing with PBST, horseradish peroxidase labeled goat anti-human IgG secondary antibody (GOAT Anti human (HRP), Thermo Fisher Scientific, #31412) was added and reacted at room temperature for 30 minutes. The plates were repeatedly washed with PBST for 5 times, and dried the residual droplets as possible on absorbent paper. […] (eBioscience, #85-00-420) was added and stood at room temperature (20±5 ) in the dark for 1.5 minutes. […] stop solution was added to each well to stop the substrate reaction. The OD value was read with a microplate reader at 450 nm. The binding abilities of antibodies and proteins were analyzed.

[4] = biological target: T5, CD38 (Beijing Yiqiao Shenzhou Biotechnology Co., Ltd.) (UniProt P28907 43-300); assay: ELISA, protein coated at 1 ug/ml, OD 450 nm
T5 sequence (looked up): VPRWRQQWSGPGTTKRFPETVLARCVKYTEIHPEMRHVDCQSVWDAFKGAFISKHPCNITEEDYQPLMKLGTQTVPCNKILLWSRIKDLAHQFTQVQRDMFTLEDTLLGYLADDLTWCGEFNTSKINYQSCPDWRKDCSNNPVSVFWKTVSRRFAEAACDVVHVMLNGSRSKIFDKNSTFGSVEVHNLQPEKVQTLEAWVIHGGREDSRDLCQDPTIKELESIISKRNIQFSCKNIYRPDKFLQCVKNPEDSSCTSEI
Procedure: as §1

[5] = biological target: T6, TROP2 (Beijing Yiqiao Shenzhou Biotechnology Co., Ltd.) (UniProt P09758 27-274); assay: ELISA, protein coated at 1 ug/ml, OD 450 nm
T6 sequence (looked up): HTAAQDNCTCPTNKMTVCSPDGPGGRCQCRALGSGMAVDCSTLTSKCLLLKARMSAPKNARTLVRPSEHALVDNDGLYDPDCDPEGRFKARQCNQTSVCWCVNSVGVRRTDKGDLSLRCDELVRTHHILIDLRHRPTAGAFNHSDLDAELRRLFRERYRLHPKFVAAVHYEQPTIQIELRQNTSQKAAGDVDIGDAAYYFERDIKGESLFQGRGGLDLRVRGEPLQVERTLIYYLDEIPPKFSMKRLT
Procedure: as §1

Gas6 (R&D) = biological target: T7, Gas6 (R&D) (UniProt Q14393 49-678, limits assumed); assay: ELISA, protein coated at 1 ug/ml, OD 450 nm
T7 sequence (looked up): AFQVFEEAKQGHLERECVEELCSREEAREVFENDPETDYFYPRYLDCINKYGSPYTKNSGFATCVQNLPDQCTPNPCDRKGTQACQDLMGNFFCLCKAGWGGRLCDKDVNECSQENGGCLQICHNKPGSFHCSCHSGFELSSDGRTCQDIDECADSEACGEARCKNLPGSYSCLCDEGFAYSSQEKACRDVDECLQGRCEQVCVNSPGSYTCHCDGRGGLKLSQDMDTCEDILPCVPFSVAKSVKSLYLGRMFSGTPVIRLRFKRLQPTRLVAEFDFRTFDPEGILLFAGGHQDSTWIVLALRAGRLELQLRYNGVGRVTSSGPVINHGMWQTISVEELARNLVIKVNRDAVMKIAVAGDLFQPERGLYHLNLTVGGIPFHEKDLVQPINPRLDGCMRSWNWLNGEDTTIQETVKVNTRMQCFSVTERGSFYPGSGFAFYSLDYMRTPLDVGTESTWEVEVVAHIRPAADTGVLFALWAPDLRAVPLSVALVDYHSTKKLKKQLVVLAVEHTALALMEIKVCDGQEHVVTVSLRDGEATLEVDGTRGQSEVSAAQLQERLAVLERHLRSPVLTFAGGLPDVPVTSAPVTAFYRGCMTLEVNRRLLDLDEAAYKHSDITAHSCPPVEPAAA
Procedure: as §1

[6] = biological target: T8, CD19 (Beijing Yiqiao Shenzhou Biotechnology Co., Ltd.) (UniProt P15391 20-291); assay: ELISA, protein coated at 1 ug/ml, OD 450 nm
T8 sequence (looked up): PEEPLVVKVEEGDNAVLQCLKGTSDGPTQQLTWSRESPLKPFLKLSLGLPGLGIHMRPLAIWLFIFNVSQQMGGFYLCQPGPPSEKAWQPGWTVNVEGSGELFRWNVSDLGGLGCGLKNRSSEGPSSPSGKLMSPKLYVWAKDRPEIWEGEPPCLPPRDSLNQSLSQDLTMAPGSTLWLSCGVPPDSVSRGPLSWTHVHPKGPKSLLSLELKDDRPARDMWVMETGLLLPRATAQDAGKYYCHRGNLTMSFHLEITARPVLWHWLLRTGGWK
Procedure: as §1

[7] = biological target: CD47 (Beijing Magpel Biotechnology Co., Ltd.) (UniProt Q08722 19-139, limits assumed); assay: ELISA, protein coated at 1 ug/ml, OD 450 nm
Sequence of CD47 (Beijing Magpel Biotechnology Co., Ltd.) (Q08722 19-139 limits assumed): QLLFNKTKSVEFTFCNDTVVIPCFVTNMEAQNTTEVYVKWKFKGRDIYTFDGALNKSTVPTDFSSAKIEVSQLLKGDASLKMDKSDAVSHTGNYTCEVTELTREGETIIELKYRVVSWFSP
Procedure: as §1

BSA (BOVOGEN) = biological target: T9, BSA (BOVOGEN) (UniProt P02769 25-607); assay: ELISA, protein coated at 1 ug/ml, OD 450 nm
T9 construct: Specificity control
T9 sequence (P02769 25-607 limits assumed): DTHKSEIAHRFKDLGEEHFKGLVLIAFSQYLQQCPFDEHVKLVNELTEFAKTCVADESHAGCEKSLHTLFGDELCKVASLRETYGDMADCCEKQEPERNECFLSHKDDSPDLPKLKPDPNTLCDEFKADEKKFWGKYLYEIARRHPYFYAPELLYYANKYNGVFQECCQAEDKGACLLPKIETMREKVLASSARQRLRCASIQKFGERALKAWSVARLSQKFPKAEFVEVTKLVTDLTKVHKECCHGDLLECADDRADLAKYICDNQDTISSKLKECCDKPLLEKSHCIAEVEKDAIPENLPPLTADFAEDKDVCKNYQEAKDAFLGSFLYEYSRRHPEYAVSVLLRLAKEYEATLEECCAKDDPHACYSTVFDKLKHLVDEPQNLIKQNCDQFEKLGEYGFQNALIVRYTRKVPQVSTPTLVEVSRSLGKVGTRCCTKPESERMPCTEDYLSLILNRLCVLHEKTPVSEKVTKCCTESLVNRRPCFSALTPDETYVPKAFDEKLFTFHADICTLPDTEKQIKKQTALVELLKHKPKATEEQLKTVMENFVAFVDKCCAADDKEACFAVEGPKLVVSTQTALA
Procedure: as §1

[8] = biological target: T3, AXL-Fc (fusion protein of human AXL …); assay: ELISA, AXL-Fc coated at 1 ug/ml, anti-mouse IgG-HRP detection
Procedure: The AXL-Fc prepared in Example 1 was coated on the ELISA plate at 1 μg/ml at 4° C. overnight. After washing with PBST, 10% fetal bovine serum was added and blocked at 37° C. for 1 hour. Different concentrations of the 6G12 antibodies were added and reacted at 37° C. for 1 hour. After washing with PBST, horseradish peroxidase-labeled goat anti-mouse secondary antibody (Goat Anti-mouse IgGHRP, Abcam) was added and reacted at 37° C. for 30 minutes. The plate was repeatedly washed with PBST for 5 times, and dried to remove residual droplets as possible by absorbent paper. 100 μl of TMB (eBioscience) was added into each well, and stood at room temperature (20±5 ) in the dark for 1.5 minutes. 100 μl of 2N H₂SO₄ stop solution was added to each well to stop the substrate reaction. The OD value was read with a microplate reader at 450 nm. The binding ability of the antibody to AXL-Fc was analyzed.

Kd [1]: 0.154 nM
koff [1]: 0.000402 s⁻¹
kon [1]: 2.61e+06 M⁻¹ s⁻¹
internalization efficiency EC50 on human breast cancer MDA-MB-231 cells (flow cytometry, surface MFI at 4 C against 37 C) [2]: 0.89 ng/mL
internalization efficiency EC50 on human non-small cell lung cancer A549 cells (flow cytometry, surface MFI at 4 C against 37 C) [2]: 0.61 ng/mL
internalization efficiency EC50 on human pancreatic cancer MIA PaCa-2 cells (flow cytometry, surface MFI at 4 C against 37 C) [2]: 1.3 ng/mL
internalization efficiency EC50 on renal clear cell adenocarcinoma 786-O cells (flow cytometry, surface MFI at 4 C against 37 C) [2]: 1.5 ng/mL
EC50 [3]: 19.4 ng/mL
binding result (BCMA (ACRO Biosystems)): no binding
binding result [4]: no binding
binding result [5]: no binding
binding result (Gas6 (R&D)): no binding
binding result [6]: no binding
binding result [7]: no binding
binding result (BSA (BOVOGEN)): no binding
B1: C6G12 antibody (Chimeric 6G12) (antibody, human IgG1, kappa, V domains shown)
VH: QVQLKQSGPGLVKPSQSLSLTCSVTGFSISSGYYWNWIRQFPGNKLEWMGYRSYDGSNNYNPSLKNRISITRDTSKNQFFLKLNSVTTEDTATYYCARGWLLHYTMDYWGQGTSVTVSS
VL: ELVMTQSPFSNAVTLGTSASISCRSSRSLLHSNGFTYLYWYLQKPGQSPQLLIYQMSNLASGVPDRFSSSGSGTDFTLRISRVEAEDVGVYYCGQNLELPLTFGAGTKLELKR
notes: 6G12 variable regions with a human IgG1 constant region, expressed in CHO-S cells and purified by Protein A; also called chimeric antibody

EC50 [8]: 669 ng/mL
B2: 6G12 antibody (antibody, V domains shown)
VH: B1 VH
VL: ELVMTQSPFSNAVTLGTSASISCRSSRSLLHSNGFTYLYWYLQKPGQSPQLLIYQMSNLASGVPDRFSSSGSGTDFTLRISRVEAEDVGVYYCGQNLELPLTFGAGTKLELK
notes: also called monoclonal antibody 6G12
